Where a chain is given by its changes, count along the chain named.
B1: SR50 (VHH)
VHH: QVQLVESGGGLVQAGGSLRLNCAASGFPVAQAVMAWYRQALGKEREWVAAMHSTGTYTAYADSVKGRFTISRDNAKNTVYLQMNSLKPEDTAVYYCAVHVGFWYAGQGTQVTVS
B2: MR7 (VHH)
VHH: QVQLVESGGGLVQAGGSLRLSCAASGFPVNSWMEWYRQAPGKEREWVAAITSYGYKTYYADSVKGRFTISRDNAKNTVYLQMNSLKPEDTAVYYCNVKDEGYFSDEYDYWGQGTQVTVS
B3: SR36 (VHH)
VHH: QVQLVESGGGLVQAGGSLRLSCAASGFPVYMEEMEWYRQAPGKEREWVAAIASYGSETYYADSVKGRFTISRDNAKNTVYLQMNSLKPEDTAVYYCYVYVGQSYIGQGTQVTVS
B4: SR41 (VHH)
VHH: B3 VHH with Y30G, M31S, E32T, A52S, Y54T, S56H, E57Y, Y59H, Q102G, I105L
B5: SR39 (VHH)
VHH: B3 VHH with Y30D, M31A, E32S, A52E, Y54Q, S56Y, Q102S
B6: SR37 (VHH)
VHH: B3 VHH with Y30S, M31T, E32A, E35T, A52E, S56N, E57S, Y59E, Q102Y
B7: SR40 (VHH)
VHH: B3 VHH with Y30D, M31S, E32Q, A52S, Y54N, S56K, E57S, Q102L
B8: SR52 (VHH)
VHH: B3 VHH with Y30N, M31N, E32M, E35T, Y54D, E57Y, Y59E, Y99W, Q102K
B9: SR38 (VHH)
VHH: B3 VHH with Y30N, M31Q, A52K, Y54W, S56T, E57L, Y59A, Y97A, Y99H, S103T
B10: SR43 (VHH)
VHH: B3 VHH with Y30K, M31K, E32H, A52Q, Y54K, S56Y, E57T, Q102E
B11: MR6 (VHH)
VHH: QVQLVESGGGLVQAGGSLRLSCAASGFPVEDTWMEWYRQAPGKEREWVAAITSWGFKTYYADSVKGRFTISRDNAKNTVYLQMNSLKPEDTAVYYCNVKDEGDTSASYDYWGQGTQVTVS
B12: MR10 (VHH)
VHH: B11 VHH with E30A, D31N, W54Y, F56Y, K57R, D103A, S105T, A106K, S107V
B13: MR9 (VHH)
VHH: B11 VHH with E30A, D31S, W54Y, F56Y, K57H, D103Y, T104F, A106T, S107N
B14: SR42 (VHH)
VHH: QVQLVESGGGLVQAGGSLRLSCAASGFPVQQREMTWYRQAPGKEREWVAAIMSKGVHTEYADSVKGRFTISRDNAKNTVYLQMNSLKPEDTAVYYCHVYVGASYFGQGTQVTVS
B15: SR44 (VHH)
VHH: QVQLVESGGGLVQAGGSLRLSCAASGFPVGTAQMAWYRQAPGKEREWVAAITSYGEYTLYADSVKGRFTISRDNAKNTVYLQMNSLKPEDTAVYYCAVHVGFWYTGQGTQVTVS
B16: SR57 (VHH)
VHH: B15 VHH with G30E, T31Q, Q33E, T52V, E56H, Y57S, L59Y, H99F, T105A
B17: SR47 (VHH)
VHH: B15 VHH with G30K, A32E, Q33T, A35H, T52Y, E56T, A97E, H99Q, F102E, T105E
B18: SR61 (VHH)
VHH: B15 VHH with G30D, T31I, Q33E, T52G, Y54Q, E56M, Y57T, L59H, T105A
B19: SR60 (VHH)
VHH: B15 VHH with G30E, T31H, T52Q, E56S, Y57T, L59Y, T105A
B20: SR56 (VHH)
VHH: QVQLVESGGGLVQAGGSLSLSCAASGFPVEHYGMYWYRQAPGKEREWVAAIRSDGQWTHYADSVKGRFTISRDNAKNTVYLQMNSLKPEDTAVYYCTVGVGSNYYGQGTQVTVS
B21: MR11 (VHH)
VHH: QVQLVESGGGLVQAGGSLRLSCAASGFPVEWTSMVWYRQAPGKEREWVAAIYSAGHHTKYADSVKGRFTISRDNAKNTVYLQMNSLKPEDTAVYYCNVKDYGHDRSNYDYWGQGTQVTVS
B22: SR45 (VHH)
VHH: QVQLVESGGGLVQAGGSLRLSCAASGFPVDNATMAWYRQAPGKEREWVAAIHSIGGYTTYADSVKGRFTISRDNAKNTVYLQMNSLKPEDTAVYYCVGVGKHYYGQGTQVTVS
B23: SR49 (VHH)
VHH: QVQLVESGGGLVQAGGSLRLSCAASGFPVFHAYMAWYRQAPGKEREWVAAIESDGSSTHYADSVKGRFTISRDNAKNTVYLQMNSLKPEDTSVYYCAVLVGFWYAGQGTQVTVS
B24: MR1 (VHH)
VHH: QVQLVESGGGLVQVGGSLRLSCAASGFPVYHSIMHWYRQAPGKEREWVAAIYSSGAHTYYADSVKGRFTISRDNAKNTVYLQMNSLKPEDTAVYYCNVKDGGNWDHTYDYWGQGTQVTVS
B25: SR54 (VHH)
VHH: QVQLVESGGGLVQAGGSLRLSCAASGFPVSQARMHWYRQAPGKEREWVAAIGSSGDFTRYADSVKGRFTISRDNAKNTVYLQMNSLKPEDTAVYYCEVQVGQWYEGQGTQVTVS
B26: SR46 (VHH)
VHH: QVQLVESGGGLVQAGGSLRLSCAASGFPVFTENMHWYRQAPGKEREWVAAIYSYGVWTLYADSVKGRFTISRDNAKNTVYLQMNSLKPEDTAVYYCVVQVGEWYEGQGTQVTVS
B27: SR55 (VHH)
VHH: B26 VHH with F30D, E32T, Y54S, V56G, W57F, V97T, Q99W, E102D
B28: SR58 (VHH)
VHH: B26 VHH with F30K, T31Q, Y54T, V56N, W57F, V97A, E102Q
B29: SR53 (VHH)
VHH: B26 VHH with F30Y, T31S, E32Q, N33H, Y54N, V56T, W57Y, V97E, Q99N
B30: SR62 (VHH)
VHH: B26 VHH with T31Q, Y54Q, V56S, W57Y, V97E, Q99N, E102Q, E105Y
B31: SR48 (VHH)
VHH: B25 VHH with S30N, A32N, R33N, G52Y, R59L, Q102F, E105T
B32: MR2 (VHH)
VHH: QVQLVESGGGLVQAGGSLRLSCAASGFPVYFSYMAWYRQAPGKEREWVAAINSEGDSTTYADSVKGRFTISRDNAKNTVYLQMNSLKPEDTAVYYCNVKDYGWYNSQYDYWGQGTQVTVS
B33: MR8 (VHH)
VHH: QVQLVESGGGLVQAGGSLRLSCAASGFPVEWAHMHWYRQAPGKEREWVAAIVSAGHYTVYADSVKGRFTISRDNAKNTVYLQMNSLKPEDTAVYYCNVKDWGSSNQYYDYWGQGTQVTVS
B34: MR12 (VHH)
VHH: B33 VHH with A32S, A54T, H56E, V59K, G102Y, S103G, S104Q, N105A, Q106K, Y107S
B35: SR51 (VHH)
VHH: QVQLVESGGGLVQAGGSLRLSCAASGFPVWESYMRWYRQAPGKEREWVAAIQSNGNNTWYADSVKGRFTISRDNAKNTVYLQMNSLKPEDTAVYYCVVYVGYEYHGQGTQVTVS
B36: SR59 (VHH)
VHH: QVQLVESGGGLVQAGGSLRLSCAASGFPVKTSRMYWYRQAPGKEREWVAAIISYGSVTFYADSVKGRFTISRDNAKNTVYLQMNSLKPEDTAVYYCYVYVGAQYWGQGTQVTVS
B37: MR5 (VHH)
VHH: QVQLVESGGGLVQAGGSLRLSCAASGFPVDAWEMAWYRQAPGKEREWVAAIRSFGRRTHYADSVKGRFTISRDNAKNTVYLQMNSLKPEDTAVYYCNVKDFGTHTQEYDYWGQGTQVTVS

biological target: SARS-CoV-2 S-RBD with Avi-tag and deca-His tag (residues 330-531) (SARS-CoV-2, UniProt P0DTC2, biotin on the Avi tag (BirA) where immobilised on streptavidin sensors or used in ELISA and FSEC)

Row | Binder | binding result
1 | B1 | binds
2 | B2 | binds
3 | B3 | binds
4 | B4 | binds
5 | B5 | binds
6 | B6 | binds
7 | B7 | binds
8 | B8 | binds
9 | B9 | binds
10 | B10 | binds
11 | B11 | binds
12 | B12 | binds
13 | B13 | binds
14 | B14 | binds
15 | B15 | binds
16 | B16 | binds
17 | B17 | binds
18 | B18 | binds
19 | B19 | binds

Row | Binder | binding result
20 | B20 | binds
21 | B21 | binds
22 | B22 | binds
23 | B23 | binds
24 | B24 | binds
25 | B25 | binds
26 | B26 | binds
27 | B27 | binds
28 | B28 | binds
29 | B29 | binds
30 | B30 | binds
31 | B31 | binds
32 | B32 | binds
33 | B33 | binds
34 | B34 | binds
35 | B35 | binds
36 | B36 | binds
37 | B37 | binds

— paper PMC8324831, “A synthetic nanobody targeting RBD protects hamsters from SARS-CoV-2 infection” (Nature Communications, 2021)
